Data: patent publication US20250277031A1

Tests used:
[1] = target: mouse CD47 on mouse red blood cells (mouse) (UniProt Q61735); test: flow cytometry on mouse RBCs
[2] = target: rat CD47 on rat red blood cells (rat) (UniProt P97829); test: flow cytometry on rat RBCs
[3] = target: human CD47 on human red blood cells (human) (UniProt Q08722); test: flow cytometry on human RBCs
[4] = target: cynomolgus CD47 on cynomolgus red blood cells (cynomolgus); test: flow cytometry on cynomolgus RBCs

Chain of mouse CD47 on mouse red blood cells (mouse) (Q61735 19-303): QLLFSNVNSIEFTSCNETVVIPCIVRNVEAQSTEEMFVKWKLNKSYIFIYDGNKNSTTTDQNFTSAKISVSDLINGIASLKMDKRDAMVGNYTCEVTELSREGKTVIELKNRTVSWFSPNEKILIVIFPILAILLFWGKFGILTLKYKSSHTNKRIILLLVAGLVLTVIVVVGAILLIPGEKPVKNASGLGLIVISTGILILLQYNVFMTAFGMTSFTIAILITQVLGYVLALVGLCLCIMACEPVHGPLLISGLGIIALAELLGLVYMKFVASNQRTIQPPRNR
Chain of rat CD47 on rat red blood cells (rat) (P97829 19-303): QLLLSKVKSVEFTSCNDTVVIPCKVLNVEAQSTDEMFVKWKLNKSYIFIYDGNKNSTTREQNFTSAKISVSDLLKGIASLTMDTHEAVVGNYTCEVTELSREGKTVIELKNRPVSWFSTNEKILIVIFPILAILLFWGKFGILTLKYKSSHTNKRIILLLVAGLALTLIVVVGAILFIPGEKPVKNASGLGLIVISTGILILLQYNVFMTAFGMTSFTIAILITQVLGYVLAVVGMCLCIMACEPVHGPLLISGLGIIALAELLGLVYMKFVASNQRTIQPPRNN

Q: With Isotype control (antibody) as the substance, how does the MFI [1] read?
A: 3.21

Q: And the MFI [2]?
A: 3.33

Q: And the MFI [3]?
A: 3.65

Q: What about the MFI [4] of the same substance?
A: 3.95
